Measurements from paper PMC8476856.

Target: recombinant human α1A/βIII tubulin (human) (UniProt Q71U36)
Assay: in vitro microtubule dynamics assay

recombinant human α1A/βIII tubulin (from UniProt Q71U36 1-451; Q13509 1-450) (complex)
critical concentration: 0.94 µM
koff: 3.2 s⁻¹
kon: 3.48e+06 M⁻¹ s⁻¹
